Test results: patent US20210403591A1 (OSSIANIX, published 2021)
Residue numbers refer to the chain shown, from its start. Like-named read-outs stand apart in the source and are kept apart here.

B1: Clone C variant 12 VNAR-hFc (Fc fusion, not shown: a dimerising Fc or GST)
chain: ARVDQTPQTITKETGESLTINCVLRDSNCALSSTYWYRKKSGSTNEENISKGGRYVETVNSGSKSFSLRINDLTVEDSGTYRCNVVQYPQQDNPFWCDVYGDGTAVTVN
B2: Clone C variant 14 VNAR-hFc (Fc fusion, not shown: a dimerising Fc or GST)
chain: B1 chain with N93R
B3: Clone C variant 15 VNAR-hFc (Fc fusion, not shown: a dimerising Fc or GST)
chain: B1 chain with D92P, P94Y
B4: Clone C variant 17 VNAR-hFc (Fc fusion, not shown: a dimerising Fc or GST)
chain: B1 chain with Q91Y, P94Y
B5: Clone C variant 19 VNAR-hFc (Fc fusion, not shown: a dimerising Fc or GST)
chain: B1 chain with Q90R, Q91T, D92N, P94Y
B6: Clone C variant 20 VNAR-hFc (Fc fusion, not shown: a dimerising Fc or GST)
chain: B1 chain with Q90S, Q91H, D92N, P94Y
B7: Clone H VNAR-hFc fusion (Fc fusion, not shown: a dimerising Fc or GST)
chain: ARVDQTPQTITKETGESLTINCVLRDSNCELSSTYWYRKKSGSTNEESISKGGRYVETVNSGSKSFSLRINDLVVEDSGTYRCNVQQFPSSSNGRYWCDVYGGGTAVTVNA
notes: bivalent VNAR-Fc
B8: Clone H variant 1 VNAR-hFc (Fc fusion, not shown: a dimerising Fc or GST)
chain: B7 chain with Q86V, F88W
notes: also called clone H var
B9: Clone H variant 2 VNAR-hFc (Fc fusion, not shown: a dimerising Fc or GST)
chain: B7 chain with S92W, N93P, G94F
B10: Clone H variant 3 VNAR-hFc (Fc fusion, not shown: a dimerising Fc or GST)
chain: B7 chain with S91W, S92G
B11: Clone H variant 4 VNAR-hFc (Fc fusion, not shown: a dimerising Fc or GST)
chain: B7 chain with S91R, S92F
B12: Clone H variant 5 VNAR-hFc (Fc fusion, not shown: a dimerising Fc or GST)
chain: B7 chain with S90N, S91R, S92W
B13: Clone H variant 6 VNAR-hFc (Fc fusion, not shown: a dimerising Fc or GST)
chain: B7 chain with S91R, S92N
B14: Clone H variant 7 VNAR-hFc (Fc fusion, not shown: a dimerising Fc or GST)
chain: B7 chain with S90T, S91R, S92T
B15: Clone H variant 8 VNAR-hFc (Fc fusion, not shown: a dimerising Fc or GST)
chain: B7 chain with S91R, S92H
B16: Clone H variant 10 VNAR-hFc (Fc fusion, not shown: a dimerising Fc or GST)
chain: B7 chain with S91W, S92F
notes: also called clone H var; 10

Columns and labels:
[1] = molecular target: T1, recombinant mouse TfR-1, His-tagged (Sino Biological 50741-M07H) (mouse, UniProt Q62351 89-763); assay: SPR, His-captured TfR1
T1 construct: bought; His-tagged; also called mTfR1; mTfR-1
Description: (§1) Detailed binding kinetic analyses were performed to gain a better understanding of the relationship between affinity and brain penetration of the Clone C variants. Biacore surface plasmon resonance (SPR) analysis using immobilised mouse and human TfR-1 was performed for selected clones (Table 2).
(§2) Binding kinetics of VNAR-Fcs was determined by surface plasmon resonance (Biacore T200, GE Healthcare). CMS chips were coated with anti-His antibodies (His Capture Kit, GE Healthcare) as recommended by the manufacturer and human or mouse his-tagged TfR1 (SinoBiological) at 10 ug/mL in HBS-EP+ (GE Healthcare) was captured at flow rate 10 ul/min (contact time 120 s). […] A flow cell without TfR1 captured served as a reference. Sensorgrams were fitted and kinetic constants were determined using Biacore T200 Evaluation software. Chips were regenerated in 10 mM Glycine-HCl, pH 1.5 (contact time: 120 s at flow rate 30 ul/min).

[2] = molecular target: T2, recombinant human TfR-1, His-tagged (Sino Biological 11020-H07H) (human, UniProt P02786 89-760); assay: SPR, His-captured TfR1
T2 construct: bought; His-tagged; also called hTfR1; hTfR-1
Description: as §1, §2

[3] = molecular target: T1, recombinant mouse TfR-1, His-tagged …; assay: SPR, His-captured TfR1; remark: listed apart in the source
Description: (§3) Detailed binding kinetic analyses were performed to gain a better understanding of the relationship between affinity and brain penetration of the Clone H variants. Biacore surface plasmon resonance (SPR) analysis using immobilized mouse and human TfR-1 was performed for the clones (Table 5).
as §2

[4] = molecular target: T2, recombinant human TfR-1, His-tagged …; assay: SPR, His-captured TfR1; remark: listed apart in the source
Description: as §3, §2

[5] = molecular target: T3, purified mTfR1 mutant M2 (NAS) (mouse, UniProt Q62351 89-763); assay: ELISA, coated purified mTfR-1 mutant M2 (NAS) against WT
T3 construct: also called G254A

[6] = molecular target: T3, purified mTfR1 mutant M2 (NAS); assay: ELISA, coated purified mTfR-1
[7] = molecular target: T4, purified mTfR1 mutant M3 (NGA) (mouse, UniProt Q62351 89-763); assay: ELISA, coated purified mTfR-1
T4 construct: also called S255A

[8] = molecular target: T5, purified mTfR1 mutant M1 (AGS) (mouse, UniProt Q62351 89-763); assay: ELISA, coated purified mTfR-1
T5 construct: also called N253A

[9] = molecular target: purified WT mTfR-1 (ELISA coat) (mouse, UniProt Q62351 89-763); assay: ELISA, coated purified mTfR-1
purified WT mTfR-1 (ELISA coat), sequence (Q62351 89-763): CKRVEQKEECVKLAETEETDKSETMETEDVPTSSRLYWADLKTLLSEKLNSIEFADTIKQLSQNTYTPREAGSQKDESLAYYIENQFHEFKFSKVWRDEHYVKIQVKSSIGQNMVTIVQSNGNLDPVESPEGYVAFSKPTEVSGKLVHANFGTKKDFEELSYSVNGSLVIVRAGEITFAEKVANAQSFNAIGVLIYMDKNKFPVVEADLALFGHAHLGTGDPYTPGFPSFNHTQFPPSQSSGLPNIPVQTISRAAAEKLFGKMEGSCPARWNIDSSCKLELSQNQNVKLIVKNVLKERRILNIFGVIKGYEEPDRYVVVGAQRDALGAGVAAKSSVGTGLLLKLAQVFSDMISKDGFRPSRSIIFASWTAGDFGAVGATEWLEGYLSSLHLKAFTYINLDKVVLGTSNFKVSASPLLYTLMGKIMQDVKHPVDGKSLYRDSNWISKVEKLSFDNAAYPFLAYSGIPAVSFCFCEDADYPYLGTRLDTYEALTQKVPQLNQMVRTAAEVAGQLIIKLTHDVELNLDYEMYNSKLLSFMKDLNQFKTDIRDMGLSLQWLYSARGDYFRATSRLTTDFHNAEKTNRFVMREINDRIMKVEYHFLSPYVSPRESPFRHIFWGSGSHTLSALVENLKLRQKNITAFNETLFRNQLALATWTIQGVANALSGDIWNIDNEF

T3 sequence (Q62351 other isoform, or with tags, fused parts or gaps mutant): as the sequence (Q62351 89-763) above, with G166A counted along it
T1 sequence (Q62351 89-763 limits assumed, stated change not applied): as the sequence (Q62351 89-763) above
T2 sequence (P02786 89-760 limits assumed): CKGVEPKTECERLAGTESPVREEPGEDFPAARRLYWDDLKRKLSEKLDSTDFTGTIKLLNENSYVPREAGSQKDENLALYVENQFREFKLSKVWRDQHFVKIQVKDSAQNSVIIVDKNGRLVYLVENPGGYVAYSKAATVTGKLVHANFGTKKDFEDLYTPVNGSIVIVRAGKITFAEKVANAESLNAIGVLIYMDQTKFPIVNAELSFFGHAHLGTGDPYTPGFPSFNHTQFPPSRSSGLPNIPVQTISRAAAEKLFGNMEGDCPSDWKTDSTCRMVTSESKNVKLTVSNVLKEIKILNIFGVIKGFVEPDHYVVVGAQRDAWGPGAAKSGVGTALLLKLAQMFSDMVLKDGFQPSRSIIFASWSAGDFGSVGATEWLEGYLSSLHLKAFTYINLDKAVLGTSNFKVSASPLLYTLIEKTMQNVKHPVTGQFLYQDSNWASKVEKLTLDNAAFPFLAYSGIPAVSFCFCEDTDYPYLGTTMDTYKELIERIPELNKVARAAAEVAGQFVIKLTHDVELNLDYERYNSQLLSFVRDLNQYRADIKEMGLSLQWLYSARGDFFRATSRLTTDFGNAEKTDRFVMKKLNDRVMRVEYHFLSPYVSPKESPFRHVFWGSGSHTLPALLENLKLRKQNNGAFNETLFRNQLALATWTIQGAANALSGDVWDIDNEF
T4 sequence (Q62351 other isoform, or with tags, fused parts or gaps mutant): as the sequence (Q62351 89-763) above, with S167A counted along it
T5 sequence (Q62351 other isoform, or with tags, fused parts or gaps mutant): as the sequence (Q62351 89-763) above, with N165A counted along it

Binder	Kd [1] [nM]	koff [1] [s⁻¹]	kon [1] [M⁻¹ s⁻¹]	Kd [2] [nM]	koff [2] [s⁻¹]	kon [2] [M⁻¹ s⁻¹]	Kd [3] [nM]	koff [3] [s⁻¹]	kon [3] [M⁻¹ s⁻¹]	Kd [4] [nM]	koff [4] [s⁻¹]	kon [4] [M⁻¹ s⁻¹]	fold reduction of binding relative to WT mTfR-1 [5] [fold]	EC50 [6] [nM]	EC50 [7] [nM]	EC50 [8] [nM]	EC50 [9] [nM]
B1	0.715	0.000128	179000	0.699	0.000142	203000											
B2	6.69	0.000133	19900	6.34	0.000156	24500											
B3	0.0902	2.52e-05	279000	0.248	5.78e-05	233000											
B4	0.207	3.72e-05	180000	0.439	8.13e-05	185000											
B5	1.33	0.000287	216000	0.454	0.000109	239000											
B6	2.06	0.000103	50100	5.61	0.000291	51900											
B7							2.54	9.11e-05	35800	6.11	0.00183	301000	~10	170	6.6	5.7	1.6
B8							4.69	0.000195	41600	2.38	0.000121	50800	~10	4.7	0.99	1.4	0.69
B9							25.2	0.000482	19100	3.77	0.000403	107000					
B10							5.59	0.000273	48900	4.71	0.000254	53900					
B11							12.4	0.000352	28300	15.9	0.00183	115000					
B12							11	0.000369	33700								
B13							16.5	0.000417	25300								
B14							15.6	0.000399	25600								
B15							8.4	0.000618	73600	25	0.000948	38000					
B16							5.53	0.000279	50500	3.37	0.000269	79900	~10	22	4	3.3	2.5
